Measurements taken from patent publication US20160194644A1 (COMMISSARIAT A L ENERGIE ATOMIQUE ET AUX ENERGIES …, published 2016).

Biological target: T1, Flag-RNF185 (wild type, full length human RNF185 with N-terminal Flag tag) (human, UniProt Q96GF1 2-192)
T1 construct: Expressed by transfection in HEK293T cells; co-immunoprecipitation from lysates; For the CFTR co-IP, cells expressing WT RNF185 were treated with MG132 for 5 hours; also called RNF185 WT; Flag-tagged RNF185
T1 sequence: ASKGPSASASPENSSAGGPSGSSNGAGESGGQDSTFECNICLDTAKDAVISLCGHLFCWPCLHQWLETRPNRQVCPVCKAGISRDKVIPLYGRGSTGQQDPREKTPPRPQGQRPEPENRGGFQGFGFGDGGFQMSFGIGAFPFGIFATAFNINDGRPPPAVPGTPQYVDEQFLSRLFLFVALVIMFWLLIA
Assay: Flag co-immunoprecipitation from HEK293T cell lysates

binding result: no binding
B1: Ubc7/UBE2G1 (enzyme, UniProt P62253 1-170, looked up)
chain: MTELQSALLLRRQLAELNKNPVEGFSAGLIDDNDLYRWEVLIIGPPDTLYEGGVFKAHLTFPKDYPLRPPKMKFITEIWHPNVDKNGDVCISILHEPGEDKYGYEKPEERWLPIHTVETIMISVISMLADPNGDSPANVDAAKEWREDRNGEFKRKVARCVRKSQETAFE
notes: the construct is not described
